This is an account of results in patent publication US20160031974A1 (UCB, published 2016).

Assay [1] concerns the target T1, Human OX40 (soluble analyte in BIAcore) (human, UniProt P43489 29-214, limits assumed).
T1 construct: also called hOX40
T1 sequence (looked up): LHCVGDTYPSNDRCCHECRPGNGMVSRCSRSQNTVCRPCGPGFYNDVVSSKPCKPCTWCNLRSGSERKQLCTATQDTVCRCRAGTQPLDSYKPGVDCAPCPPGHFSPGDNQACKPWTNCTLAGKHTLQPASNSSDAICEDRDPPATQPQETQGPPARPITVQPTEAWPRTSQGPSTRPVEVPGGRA
The experiment in a line: SPR (BIAcore T200), antibody captured by anti-human F(ab′)2, human OX40 as analyte; average of 4. As to the method: (§1) BIA (Biamolecular Interaction Analysis) was performed using a BIAcore T200 (GE Healthcare). Affinipure F(ab′)₂ Fragment goat anti-human IgG, F(ab′)₂ fragment specific (Jackson ImmunoResearch) was immobilised on a CM5 Sensor Chip via amine coupling chemistry to a capture level of ≈5000 response units (RUs). HBS-EP buffer (10 mM HEPES pH 7.4, 0.15 M NaCl, 3 mM EDTA, 0.05% Surfactant P20, GE Healthcare) was used as the running buffer with a flow rate of 10 μL/min. A 10 μL injection of A26 Fab′ at 0.5 μg/mL or A26Fab-dsFv at 1 μg/mL was used for capture by the immobilised anti-human IgG-F(ab′)₂. Human OX40 was titrated over the captured A26 at various concentrations (25 nM to 1.5625 nM) at a flow rate of 30 μL/min. The surface was regenerated by 2×10 μL injection of 50 mM HCl, followed by a 5 μL injection of 5 mM NaOH at a flowrate of 10 μL/min. Background subtraction binding curves were analysed using the T200evaluation software (version 1.0) following standard procedures. Kinetic parameters were determined from the fitting algorithm.
(In general: Surface plasmon resonance follows binding to a sensor surface in real time, without labels.)

Assay [2] concerns the target T2, Human OX40 expressed on the cell surface (activated human CD4+ OX40+ T cells) (human, UniProt P43489 29-277).
T2 construct: whole, on cells; Also used as the target for the functional assays on human PBMC; also called cell-surface expressed OX40
T2 sequence (looked up): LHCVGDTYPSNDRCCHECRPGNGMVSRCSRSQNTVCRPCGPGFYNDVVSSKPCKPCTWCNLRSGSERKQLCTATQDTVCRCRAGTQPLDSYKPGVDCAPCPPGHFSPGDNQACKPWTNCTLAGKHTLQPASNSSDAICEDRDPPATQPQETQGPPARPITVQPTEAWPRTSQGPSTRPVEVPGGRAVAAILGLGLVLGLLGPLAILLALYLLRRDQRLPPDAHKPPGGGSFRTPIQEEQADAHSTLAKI
Nature of the assay: flow cytometry binding on activated human CD4+ OX40+ T cells in 5% HSA, % maximal binding, mean of 4 or 5 donors. As to the method:
Binding of AlexaFluor488-labelled A26 Fab-Fv to activated human CD4⁺0 X40⁺ T cells was measured by flow cytometry across a 5-log concentration range.
(§2) PBMC were isolated by separation on a Ficoll gradient and activated with 4 μg/mL PHA-L for 3 days at 37° C., 5% CO₂, 100% humidity. Following this, CD4⁺ T cells were isolated by negative selection using magnetic beads (CD4⁺ T cell Isolation Kit II for Human; Miltenyi Biotec). Approximately 1×10⁵ cells were incubated in the presence of antibody in either Facs buffer (PBS/0.2% BSA/0.09% NaN3) or Facs buffer supplemented with 5% HSA, at 4° C. The final concentration of the antibody ranged from 48 nM-0.0005 nM. The cells were washed in PBS prior to analysis by flow cytometry using a FACScalibur (Becton Dickinson). Titration data sets were also produced for isotype control antibodies for each A26 format to determine non specific binding. The number of moles of bound antibody was calculated by using interpolated values from a standard curve generated from beads comprised of differing but known amounts of fluorescent dye. Geometric mean fluorescence values were determined in the flow cytometric analyses of cells and beads. Non-specific binding was subtracted from the A26 Fab-Fv values and the specific binding curve thus generated analysed by non-linear regression using a one-site binding equation (Graphpad Prism®) to determine the KD.
On the technique in general: A flow cytometer gives signals particle by particle.

The target of assay [3] is T2, Human OX40 expressed on the cell …. Nature of the assay: flow cytometry ligand-blocking assay on activated human CD4+ OX40+ T cells; blocked ligand: recombinant OX40L (biotinylated CD252 muCD8). As to the method: (§3) The capacity of A26 Fab-dsFv to block the interaction between cell-surface expressed OX40 and recombinant OX40L was measured using a flow cytometry-based ligand blocking assay. Briefly, activated human CD4⁺OX40⁺ T cells were pre-incubated with a titration of A26 Fab-Fv. Recombinant OX40L was subsequently added to the cells and allowed to bind in the presence of A26 Fab-dsFv. The proportion of OX40L bound was then detected by flow cytometry using a labelled secondary reagent.
(§4) PBMC were isolated by separation on a Ficoll gradient and activated with 4 μg/mL PHA-L (Sigma) for 3 days at 37° C., 5% CO₂, 100% humidity. CD4⁺ T cells were then purified from the culture by negative selection using MACS columns (Miltenyi Biotech, CD4⁺ T cell isolation kit II). 2×10⁵ CD4⁺ T cells were incubated in the presence of A26 Fab-dsFv (final concentration range 10 μg/mL-0.000056 μg/mL (136.6 nM-0.000765 nM)) for 30 minutes at 4° C. OX40L (biotinylated CD252 muCD8, Ancell) was added at a final concentration of 2 μg/mL and incubated for a further 30 minutes at 4° C. Cells were washed and OX40L binding detected by incubation with PE-labelled streptavadin (Jackson Immunoresearch) prior to analysis by flow cytometry using a FACS Canto (Becton Dickinson). A matched non-OX40 binding Fab-dsFv was used as a control. The inhibition curve was analysed by non-linear regression (Graphpad Prism®) to determine the IC₅₀. […]

Assay [4] shares this target. Nature of the assay: flow cytometry saturation binding on activated human CD4+ OX40+ T cells, no HSA. As to the method:
(§5) Specific binding of antibody to receptor at equilibrium across a range of antibody concentrations was used to determine KD, assuming that only a very small fraction of antibody was bound to receptor at any point on the binding curve.
as §2, with “Titration data sets were also produced for isotype control antibodies for each A26 format to determine non specific binding.” left out

Assay [5] has the same target. Nature of the assay: cell-based or functional assay.
The target is the same in assay [6]. The experiment in a line: cell-based or functional assay. This is another data set of the same source.
Assay [7] shares this target. Nature of the assay: flow cytometry competition on activated human CD4+OX40+ T cells; competitor OX40L (biotinylated CD252 muCD8) at 2 µg/mL. As to the method: as §3, §4
For assay [8] the target is unchanged. The experiment in a line: flow cytometry saturation binding on activated human CD4+ OX40+ T cells, with 5% HSA. As to the method: as §5
as §2, with “Titration data sets were also produced for isotype control antibodies for each A26 format to determine non specific binding.” left out

Assay [9] deals with T3, Human Serum Albumin (human, UniProt P02768 25-609).
T3 construct: also called HSA; HAS [sic]
Nature of the assay: SPR (BIAcore T200), Fab-Fv captured by anti-human F(ab′)2, albumin as analyte; average of 3. The method, then:
as §1, with “Fab-Fv” for “A26 Fab′”, “0.75” for “0.5 μg/mL or A26Fab-dsFv at 1”, “Serum Albumin (HSA), Mouse Serum albumin (MSA) and Cynomolgus Serum Albumin (CSA)” for “OX40”, “Fab-Fv” for “A26”, “(50” for “(25”, “6.25” for “1.5625”

For assay [10], the target named is T4, Cynomolgus Serum Albumin (cynomolgus, UniProt A2V9Z4 25-608).
T4 construct: also called CSA
The description is as above. The method, then:
as §1, with “Fab-Fv” for “A26 Fab′”, “0.75” for “0.5 μg/mL or A26Fab-dsFv at 1”, “Serum Albumin (HSA), Mouse Serum albumin (MSA) and Cynomolgus Serum Albumin (CSA)” for “OX40”, “Fab-Fv” for “A26”, “(50” for “(25”, “6.25” for “1.5625”

In assay [11] the target is T5, Mouse Serum albumin (mouse, UniProt P07724 25-608).
T5 construct: also called MSA
The assay is described as above. The method, then: as §1, with “Fab-Fv” for “A26 Fab′”, “0.75” for “0.5 μg/mL or A26Fab-dsFv at 1”, “Serum Albumin (HSA), Mouse Serum albumin (MSA) and Cynomolgus Serum Albumin (CSA)” for “OX40”, “Fab-Fv” for “A26”, “(50” for “(25”, “6.25” for “1.5625”

B1: A26 Fab′-PEG (A26 Fab-40K PEG′ described in WO2010/096418) (Fab, V domains shown)
VH: EVQLVESGGGLVQPGGSLRLSCAASGFTFTNYGIHWIRQAPGKGLEWVASISPSGGLTYYRDSVKGRFTISRDDAKNSPYLQMNSLRAEDTAVYYCATGGEGIFDYWGQGTLVTVSS
VL: DIQMTQSPSSLSASVGDRVTITCRATQSIYNALAWYQQKPGKAPKLLIYNANTLHTGVPSRFSASGSGTDSTLTISSLQPEDFATYYCQQYYDYPLTFGGGTKVEIKR
modifications: 40K PEG; site of attachment not given
The term Kd denotes the equilibrium constant for the complex coming apart. As a reminder, the koff is the first-order rate constant of dissociation. The kon is the second-order rate constant of association. A high value points to fast association. One may read the EC50 (read off the curve) as the concentration needed to bring the measured effect to its halfway point. For orientation: EC50 means the concentration at which the effect is half-maximal. Lower therefore signals higher potency in that assay. As for B1, in assay [1], the dissociation constant Kd was 0.0484 nM, the koff came to 1.12e-05 s⁻¹ and the kon was determined as 233000 M⁻¹ s⁻¹. For the same molecule, in [2], the “EC50 (read off the curve)” value was roughly 0.2 nM. The “IC50 (read off the curve)” value in assay [3] was roughly 0.7 nM. For the same molecule, the Kd in assay [4] was 0.322 nM. Also, in [5], the “Inhibition of IL-5 Production EC50 (human HDM in vitro assay)” value came to 1.31 nM and the “Inhibition of IL-13 Production EC50 (human HDM in vitro assay)” value stood at 0.928 nM. For the same molecule, in assay [6], the “EC50 for inhibition of human MLR proliferative response” value is 0.88 nM. In assay [7], this molecule returned an EC50 of 0.739 nM. In assay [8], this molecule displayed a Kd of 0.23 nM.

B2: A26 Fab′ (Fab, V domains shown)
VH: EVQLVESGGGLVQPGGSLRLSCAASGFTFTNYGIHWIRQAPGKGLEWVASISPSGGLTYYRDSVKGRFTISRDDAKNSPYLQMNSLRAEDTAVYYCATGGEGIFDYWGQGTLVTVSS
VL: DIQMTQSPSSLSASVGDRVTITCRATQSIYNALAWYQQKPGKAPKLLIYNANTLHTGVPSRFSASGSGTDSTLTISSLQPEDFATYYCQQYYDYPLTFGGGTKVEIKR
For the molecule B2, in assay [1], the Kd was no more than 0.0468 nM, the koff is no more than 1e-05 s⁻¹ and the kon is 218000 M⁻¹ s⁻¹. Moreover, in [2], the “EC50 (read off the curve)” value was roughly 0.09 nM. The “IC50 (read off the curve)” value in assay [3] is roughly 0.3 nM. The molecule further yielded a dissociation constant Kd in assay [4] of 0.085 nM. Further, in assay [5], the “Inhibition of IL-5 Production EC50 (human HDM in vitro assay)” value is 0.68 nM and the “Inhibition of IL-13 Production EC50 (human HDM in vitro assay)” value was 0.335 nM. The “EC50 for inhibition of human MLR proliferative response” value in [6] amounted to 0.25 nM. Besides, the EC50 in assay [7] was 0.242 nM. For the same molecule, in assay [8], the Kd is 0.068 nM.

B3: A26 Fab-dsFv (645gH5gL4) (bispecific antibody)
heavy: EVQLVESGGGLVQPGGSLRLSCAASGFTFTNYGIHWIRQAPGKGLEWVASISPSGGLTYYRDSVKGRFTISRDDAKNSPYLQMNSLRAEDTAVYYCATGGEGIFDYWGQGTLVTVSSASTKGPSVFPLAPSSKSTSGGTAALGCLVKDYFPEPVTVSWNSGALTSGVHTFPAVLQSSGLYSLSSVVTVPSSSLGTQTYICNVNHKPSNTKVDKKVEPKSCSGGGGSGGGGTGGGGSEVQLLESGGGLVQPGGSLRLSCAVSGIDLSNYAINWVRQAPGKCLEWIGIIWASGTTFYATWAKGRFTISRDNSKNTVYLQMNSLRAEDTAVYYCARTVPGYSTAPYFDLWGQGTLVTVSS
light: DIQMTQSPSSLSASVGDRVTITCRATQSIYNALAWYQQKPGKAPKLLIYNANTLHTGVPSRFSASGSGTDSTLTISSLQPEDFATYYCQQYYDYPLTFGGGTKVEIKRTVAAPSVFIFPPSDEQLKSGTASVVCLLNNFYPREAKVQWKVDNALQSGNSQESVTEQDSKDSTYSLSSTLTLSKADYEKHKVYACEVTHQGLSSPVTKSFNRGECGGGGSGGGGSGGGGSDIQMTQSPSSVSASVGDRVTITCQSSPSVWSNFLSWYQQKPGKAPKLLIYEASKLTSGVPSRFSGSGSGTDFTLTISSLQPEDFATYYCGGGYSSISDTTFGCGTKVEIKRT
notes: also called A26 Fab-Fv; Fab-Fv
For B3, the Kd in assay [9] was 2.93 nM; in [10], 2.66 nM; in assay [11] it was 4.16 nM. For the same molecule, the figures for the koff in assay [9], in assay [10] and in assay [11] were 0.000163 s⁻¹, 0.000189 s⁻¹ and 0.000368 s⁻¹, respectively. For the same molecule, the kon in [9] worked out at 58400 M⁻¹ s⁻¹; in assay [10] it was 71000 M⁻¹ s⁻¹; in assay [11] it was 88600 M⁻¹ s⁻¹.
